Measured values from the supplement of paper PMC9732359.
± gives the uncertainty stated by the source.

Assay: protein stability index of a GFP-peptide fusion (yeast GPS) (PSI 1-4); higher = more stable; sorted into four equal gates, so the index is relative within each strain
Procedure, shortened: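 The protein stability index of a peptide was calculated by multiplying its read frequency in each gate by that gate's number and adding the products. The peptides were tiled 17-residue stretches of yeast proteins, fused downstream of GFP on a Cherry-expressing plasmid and carried in yeast as a pooled library. Mid-log cultures in leucine-free medium were sorted into four equal gates by GFP/Cherry ratio, and each gate's plasmids were PCR-amplified and Illumina-sequenced.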

Sequence	protein stability index (doa10∆)	protein stability index (pdr5∆)	protein stability index (san1∆)	protein stability index (ubr1∆)
DIKAAVDDSMELCGQIR [ITC1]	2.65 ± 0.092	2.82 ± 0.12	2.21 ± 0.17	2.9 ± 0.14
LEELAETFQDTFSGALG [FAS2]	2.95 ± 0.065	3.06 ± 0.077	3.21 ± 0.05	3.31 ± 0.067
MEADPSLHPLFEQFEKF [RPN9]	2.82 ± 0.073	2.84 ± 0.061	2.39 ± 0.1	2.55 ± 0.05
LGKTIQTISLLTYLYEM [SNF2]	1.72 ± 0.093	2.5 ± 0.087	2.47 ± 0.081	2.38 ± 0.076
SLGIAQPKGVILYGPPG [RPT6]	2.71 ± 0.061	2.89 ± 0.072	2.77 ± 0.089	2.91 ± 0.077
TSPTMPDYYVSILSFVD [RPT2]	2.2 ± 0.048	2.31 ± 0.05	2.27 ± 0.042	2.15 ± 0.041
GGLSGEESIKIYPLIKP [UBP6]	2.48 ± 0.12	2.68 ± 0.076	1.88 ± 0.15	2.16 ± 0.09
RVIIQELRFPSPTPIQR [PRP28]	2.57 ± 0.15	2.58 ± 0.15	2.41 ± 0.14	
LELLNQLDGFSSDDRVK [RPT5]	3.07 ± 0.064	3.15 ± 0.056	2.96 ± 0.051	3.03 ± 0.046
GIWNDLGSGSNVDVCVM [PUP1]	2.69 ± 0.27			
LEASYSKSYTPRKLVLS [SMC4]	2.31 ± 0.043	2.52 ± 0.059	2.11 ± 0.088	2.22 ± 0.05
FEFGNMKATSNTLEEFE [FAS2]	3.18 ± 0.054	3.4 ± 0.08	3.13 ± 0.061	3.23 ± 0.058
LPKVRIRTRRAAELLDK [DIS3]	1.78 ± 0.096	1.48 ± 0.088	1.3 ± 0.17	1.28 ± 0.072
RLLPNGSNKAQISIIDI [YML031W/NDC1]	2.91 ± 0.076	3.11 ± 0.067	2.6 ± 0.048	2.92 ± 0.035
YQISAYQTRARQKARTD [RPR2]	2.19 ± 0.027	2.31 ± 0.026	2.36 ± 0.031	2.407 ± 0.023
TKRQKHFAWLPTHIWNA [POP1]	2.03 ± 0.031	1.82 ± 0.036	1.55 ± 0.05	1.74 ± 0.021
KNATDLQQAKLRESEIS [SMC3]	3.17 ± 0.073	3.15 ± 0.071	3.11 ± 0.085	2.97 ± 0.068
PVRTIVPISTSQTNNSF [SIR4]	2.04 ± 0.04	2.2 ± 0.047	2.22 ± 0.052	2.28 ± 0.034
EMIDSHIKEASEEVDDL [SNF2]		2.81 ± 0.19	2.81 ± 0.094	3.09 ± 0.07
MLGEDEGNTVLEKGNNP [SWP82]	3.67 ± 0.13	3.22 ± 0.19	3.11 ± 0.099	3.69 ± 0.16
DKLICSIDPPGCVDIDD [DIS3]	3.33 ± 0.068	3.11 ± 0.062	2.78 ± 0.068	3.14 ± 0.091
TFRRRNPYNTRSNKIKV [RPL34A]	1.43 ± 0.04	1.81 ± 0.045	1.67 ± 0.066	1.9 ± 0.04
FYLMVSSLSFGPENALN [YJL039C/NUP192]	1.68 ± 0.048	1.37 ± 0.047	1.39 ± 0.12	1.31 ± 0.051
MFTATMTPVIEKIAAGY [PRP28]	2.2 ± 0.13	1.81 ± 0.11	1.5 ± 0.15	2.35 ± 0.076
MPGGYFHSEISPDSTVN [YAR002W/NUP60]	2.56 ± 0.076	3 ± 0.095	2.54 ± 0.061	2.76 ± 0.063
DNYFNLQLNEAEEFVAG [SMX3]	2.76 ± 0.16	2.8 ± 0.16	2.5 ± 0.1	3.12 ± 0.12
RQPANTKIGAKRIHSVR [RPS8A]	3.08 ± 0.076	3.26 ± 0.075	2.74 ± 0.07	3.04 ± 0.076

Sequence	protein stability index (doa10∆)	protein stability index (pdr5∆)	protein stability index (san1∆)	protein stability index (ubr1∆)
ALNNAIPGGPKFEPLYP [PRP8]	3.1 ± 0.069	2.96 ± 0.086	2.95 ± 0.09	3.06 ± 0.046
SDLGTVVFDSNEAPPKT [YMR153W/NUP53]	3.17 ± 0.057	3.13 ± 0.051	2.6 ± 0.076	2.58 ± 0.069
LLPFVKGNVGFVFTNEP [RPP0]		1.77 ± 0.26		1.84 ± 0.17
YLFDEIDAALDKQYRTA [SMC3]	2.88 ± 0.091	2.77 ± 0.097	2.61 ± 0.1	3.12 ± 0.064
KGKTPKNAAESSYMGKH [PRP28]	3.18 ± 0.12	3.22 ± 0.14	2.86 ± 0.16	3.33 ± 0.085
SKQVQVSQQPLSRGYTC [ECM29]	2.83 ± 0.074	2.76 ± 0.091	2.44 ± 0.061	2.92 ± 0.052
DVLTLENIQEGTSLTIQ [CDC53]	3.17 ± 0.1	3.22 ± 0.14	3.1 ± 0.056	3.14 ± 0.054
EDGTSASFQIVEEDHTL [RPC19]	3.02 ± 0.16	3.69 ± 0.17	3.4 ± 0.12	3.25 ± 0.13
DNPDQGISDMCRLFFTE [YCS4]	3.37 ± 0.14	3.63 ± 0.15	3.03 ± 0.14	3.04 ± 0.15
IEEAKSIRRQDYINELS [REC8]		3.11 ± 0.22	3.39 ± 0.16	3.14 ± 0.17
EDRNQRIKEMYWKLWID [FAS1]	3.17 ± 0.13	3.46 ± 0.1	3.16 ± 0.11	3.08 ± 0.087
EEAGSPLVYRHELITNI [RPB9]	3.17 ± 0.076	3.39 ± 0.058	3.28 ± 0.049	3.38 ± 0.06
GQVVLTPLTFALPRGAR [RPL14A]	1.5 ± 0.074	1.55 ± 0.071	1.18 ± 0.11	1.89 ± 0.073
DEANIEIDPLTGMPISN [BRN1]		2.65 ± 0.25		2.42 ± 0.27
NLATKGMVKLNEYPVAD [REC8]	2.85 ± 0.071	1.52 ± 0.05	1.46 ± 0.074	1.57 ± 0.058
DQNNKKMVGLRGFNNQI [SNF2]	3.35 ± 0.065	3.22 ± 0.072	3.2 ± 0.072	3.37 ± 0.044
QRIIADLSADKPTSPFI [SRB8]	2.78 ± 0.041	2.81 ± 0.054	2.82 ± 0.043	2.94 ± 0.048
SVLISIPLDNYDDFIYL [PCI8]	1.25 ± 0.048	1.75 ± 0.055	1.28 ± 0.11	1.52 ± 0.042
ERPAIEFETPTFLVSND [RPN14]	3 ± 0.063	3.14 ± 0.056	2.81 ± 0.06	2.9 ± 0.089
NATEVQKESDAKNETNS [ITC1]	2.67 ± 0.077	3.05 ± 0.11	2.67 ± 0.11	2.59 ± 0.2
SEDLFADGLLQVLVCTA [BRR2]				2.25 ± 0.13
FFGPTYYQRLRHMVDDK [RPB2]	1.24 ± 0.046	1.26 ± 0.046	1.72 ± 0.1	1.36 ± 0.053
FLKKNIIKENVKVARLA [FAS1]		1.56 ± 0.26		
QINKAQILENYNALFQQ [YJL039C/NUP192]	2.81 ± 0.068	3.12 ± 0.058	2.73 ± 0.065	3.03 ± 0.047
DVKKRTYEAIDVPGREL [RPB2]	1.99 ± 0.15	3.35 ± 0.16	2.62 ± 0.23	3.57 ± 0.17
NLNAFVDFSKYNTNFNL [SRP72]	3.19 ± 0.12	2.81 ± 0.12	3.09 ± 0.048	2.17 ± 0.08
